Measured values taken from publication PMC2756588.

Assays:
Assay in all cases: SPOT array
[1] = target: T1, Abp1, P15891; conditions: median of control spots 935
T1 sequence (P15891 535-592, looked up): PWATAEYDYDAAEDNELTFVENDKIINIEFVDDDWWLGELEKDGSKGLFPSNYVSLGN

[2] = target: T2, Bbc1, P47068; conditions: median of control spots 796
T2 sequence (P47068 1-78, looked up): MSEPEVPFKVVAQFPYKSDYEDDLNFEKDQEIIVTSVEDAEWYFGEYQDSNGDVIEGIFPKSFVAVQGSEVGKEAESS

[3] = target: Bem1-1, P29366; conditions: median of control spots 4282
Chain of Bem1-1, P29366 (P29366 55-141): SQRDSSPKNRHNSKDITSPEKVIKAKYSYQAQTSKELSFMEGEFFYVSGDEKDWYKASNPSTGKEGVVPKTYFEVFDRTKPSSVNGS

[4] = target: Bem1-2, P29366; conditions: median of control spots 4347
Chain of Bem1-2, P29366 (P29366 139-227): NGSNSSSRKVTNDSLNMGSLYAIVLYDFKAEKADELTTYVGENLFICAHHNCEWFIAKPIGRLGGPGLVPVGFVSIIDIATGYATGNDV

[5] = target: T3, Boi1, P38041; conditions: median of control spots 1162
T3 sequence (P38041 1-86, looked up): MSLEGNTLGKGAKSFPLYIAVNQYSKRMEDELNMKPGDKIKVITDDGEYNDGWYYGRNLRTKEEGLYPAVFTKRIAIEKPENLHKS

[6] = target: T4, Boi2, P39969; conditions: median of control spots 1161
T4 sequence (P39969 32-116, looked up): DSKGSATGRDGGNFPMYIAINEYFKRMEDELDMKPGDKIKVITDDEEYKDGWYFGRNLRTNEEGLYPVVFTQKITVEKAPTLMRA

[7] = target: T5, Bud14, P27637; conditions: median of control spots 956
T5 sequence (P27637 247-328, looked up): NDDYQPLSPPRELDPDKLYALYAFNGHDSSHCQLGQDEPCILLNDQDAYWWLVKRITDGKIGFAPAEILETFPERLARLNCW

[8] = target: T6, Bzz1-1, P38822; conditions: median of control spots 4446
T6 sequence (P38822 478-572, looked up): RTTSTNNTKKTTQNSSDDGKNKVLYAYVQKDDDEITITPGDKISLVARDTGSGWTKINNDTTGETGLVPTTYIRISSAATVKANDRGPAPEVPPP

[9] = target: T7, Bzz1-2, P38822; conditions: median of control spots 4538
T7 sequence (P38822 568-633, looked up): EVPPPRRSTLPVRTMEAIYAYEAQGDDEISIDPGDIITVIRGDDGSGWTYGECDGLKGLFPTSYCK

[10] = target: T8, Cdc25, P04821; conditions: median of control spots 969
T8 sequence (P04821 50-136, looked up): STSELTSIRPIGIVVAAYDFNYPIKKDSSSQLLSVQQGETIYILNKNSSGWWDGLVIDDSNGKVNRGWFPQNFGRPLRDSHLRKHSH

[11] = target: T9, Cyk3, Q07533; conditions: median of control spots 1451
T9 sequence (Q07533 1-83, looked up): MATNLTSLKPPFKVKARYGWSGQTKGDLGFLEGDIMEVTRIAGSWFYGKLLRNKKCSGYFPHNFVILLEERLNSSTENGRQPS

[12] = target: T10, Fus1, P11710; conditions: median of control spots 1200
T10 sequence (P11710 432-512, looked up): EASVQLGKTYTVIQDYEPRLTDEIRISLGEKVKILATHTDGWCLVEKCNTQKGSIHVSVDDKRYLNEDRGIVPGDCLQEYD

[13] = target: GST; conditions: median of control spots 978
[14] = target: T11, Hof1, Q05080; conditions: median of control spots 4086
T11 sequence (Q05080 590-669, looked up): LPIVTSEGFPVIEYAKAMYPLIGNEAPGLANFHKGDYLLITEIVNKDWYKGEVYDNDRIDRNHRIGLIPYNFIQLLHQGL

[15] = target: T12, Hse1, P38753; conditions: median of control spots 1727
T12 sequence (P38753 208-285, looked up): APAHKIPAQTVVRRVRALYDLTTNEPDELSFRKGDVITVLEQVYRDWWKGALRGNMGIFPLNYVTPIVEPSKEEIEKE

[16] = target: T13, Lsb1, P53281; conditions: median of control spots 388
T13 sequence (P53281 45-122, looked up): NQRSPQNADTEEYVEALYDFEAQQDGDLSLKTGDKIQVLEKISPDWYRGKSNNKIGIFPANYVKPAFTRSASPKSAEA

[17] = target: T14, Lsb3, P43603; conditions: median of control spots 406
T14 sequence (P43603 385-451, looked up): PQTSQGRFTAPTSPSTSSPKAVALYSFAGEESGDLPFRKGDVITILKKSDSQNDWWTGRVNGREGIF

[18] = target: T15, Lsb4, P32793; conditions: median of control spots 397
T15 sequence (P32793 402-468, looked up): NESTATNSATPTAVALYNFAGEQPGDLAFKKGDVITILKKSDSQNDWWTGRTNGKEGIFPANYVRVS

[19] = target: Myo3, P36006; conditions: median of control spots 468
[20] = target: T16, Myo5, Q04439; conditions: median of control spots 471
T16 sequence (Q04439 1072-1160, looked up): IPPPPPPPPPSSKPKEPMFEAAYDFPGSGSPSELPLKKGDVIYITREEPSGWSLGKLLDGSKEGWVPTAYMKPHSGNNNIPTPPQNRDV

[21] = target: T17, Nbp2, Q12163; conditions: median of control spots 357
T17 sequence (Q12163 103-180, looked up): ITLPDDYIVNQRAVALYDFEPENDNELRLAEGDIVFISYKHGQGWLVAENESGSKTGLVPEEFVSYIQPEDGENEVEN

[22] = target: T18, Pex13, P80667; conditions: median of control spots 1341
T18 sequence (P80667 295-386, looked up): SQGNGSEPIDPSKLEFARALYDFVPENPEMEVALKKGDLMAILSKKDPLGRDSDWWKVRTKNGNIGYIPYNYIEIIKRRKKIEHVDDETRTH

[23] = target: T19, Pin3, Q06449; conditions: median of control spots 2171
T19 sequence (Q06449 53-122, looked up): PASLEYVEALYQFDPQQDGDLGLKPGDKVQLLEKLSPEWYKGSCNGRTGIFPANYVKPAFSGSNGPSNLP

[24] = target: Rvs167, P39743; conditions: median of control spots 2707
Chain of Rvs167, P39743 (P39743 419-482): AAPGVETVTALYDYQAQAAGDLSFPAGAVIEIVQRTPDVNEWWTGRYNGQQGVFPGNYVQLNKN

[25] = target: Sho1, P40073; conditions: median of control spots 1148
Chain of Sho1, P40073 (P40073 287-367): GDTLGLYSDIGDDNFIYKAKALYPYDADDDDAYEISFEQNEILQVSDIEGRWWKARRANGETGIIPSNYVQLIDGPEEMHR

[26] = target: T20, Sla1-2, P32790; conditions: median of control spots 712
T20 sequence (P32790 60-140, looked up): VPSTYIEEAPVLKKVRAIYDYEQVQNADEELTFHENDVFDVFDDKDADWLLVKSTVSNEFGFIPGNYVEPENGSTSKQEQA

[27] = target: T21, Sla1-3, P32790; conditions: median of control spots 5475
T21 sequence (P32790 344-424, looked up): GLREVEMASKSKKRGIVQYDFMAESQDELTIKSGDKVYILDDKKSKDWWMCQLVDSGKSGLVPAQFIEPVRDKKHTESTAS

Row | Binder | SPOT intensity [1] | SPOT intensity [2] | SPOT intensity [3] | SPOT intensity [4] | SPOT intensity [5] | SPOT intensity [6] | SPOT intensity [7] | SPOT intensity [8] | SPOT intensity [9] | SPOT intensity [10] | SPOT intensity [11] | SPOT intensity [12] | SPOT intensity [13] | SPOT intensity [14] | SPOT intensity [15] | SPOT intensity [16] | SPOT intensity [17] | SPOT intensity [18] | SPOT intensity [19] | SPOT intensity [20] | other results
1 | AERNYAPRLPRRETS | 50 | 18 | 1 | 0 | 0 | 0 | 12 | 0 | 1 | 11 | 0 | 0 | 0 | 0 | 4 | 352 | 371 | 137 | 0 | 0 | SPOT intensity [21]: 0; SPOT intensity [22]: 76; SPOT intensity [23]: 18; SPOT intensity [24]: 306; SPOT intensity [25]: 32; SPOT intensity [26]: 0; SPOT intensity [27]: 5
2 | SSTPTTPERPKRKSG | 22 | 559 | 1 | 0 | 0 | 2 | 0 | 1 | 1 | 1 | 1 | 0 | 2 | 0 | 0 | 316 | 442 | 363 | 0 | 0 | SPOT intensity [21]: 0; SPOT intensity [22]: 8; SPOT intensity [23]: 6; SPOT intensity [24]: 0; SPOT intensity [25]: 0; SPOT intensity [26]: 0; SPOT intensity [27]: 0
3 | EVTPKVPERPSRRKT | 156 | 1070 | 0 | 13 | 0 | 2 | 3 | 1 | 1 | 10 | 1 | 0 | 0 | 28 | 245 | 824 | 271 | 317 | 0 | 0 | SPOT intensity [21]: 0; SPOT intensity [22]: 171; SPOT intensity [23]: 25; SPOT intensity [24]: 129; SPOT intensity [25]: 23; SPOT intensity [26]: 0; SPOT intensity [27]: 15
